Reference: patent US20240270846A1 (published 2024)
Numbering of substitutions follows the chain as printed. Names and notes keep the numbering of the source.

B1: GLS3000 V94S one-arm antibody (antibody, human IgG1, kappa, L234A L235A, N297A, name in Kabat numbering)
light: DIVMTQSPLSLPVTPGEPASISCRSSQSLVHSNRNTYLHWYQQKPGQAPRLLIYKVSNRFSGVPDRFSGSGSGTDFTLKISRVEAEDVGVYYCGQGTQSPYTFGQGTKLEIKRTVAAPSVFIFPPSDEQLKSGTASVVCLLNNFYPREAKVQWKVDNALQSGNSQESVTEQDSKDSTYSLSSTLTLSKADYEKHKVYACEVTHQGLSSPVTKSFNRGEC
heavy: QVQLVESGGGVVQPGRSLRLSCAASGFTFSNAWMHWVRQAPGKGLEWVAQIKAKSNNYATYYAESVKGRFTISRDDSKNSLYLQMNSLKTEDTAVYYCRYVHYGAYYGVDAWGQGTTVTVSSASTKGPSVFPLAPSSKSTSGGTAALGCLVKDYFPEPVTVSWNSGALTSGVHTFPAVLQSSGLYSLSSVVTVPSSSLGTQTYICNVNHKPSNTKVDKKVEPKSCDKTHTCPPCPAPEAAGGPSVFLFPPKPKDTLMISRTPEVTCVVVDVSHEDPEVKFNWYVDGVEVHNAKTKPREEQYASTYRVVSVLTVLHQDWLNGKEYKCKVSNKALPAPIEKTISKAKGQPREPQVYTLPPSRCELTKNQVSLSCAVKGFYPSDIAVEWESNGQPENNYKTTPPVLDSDGSFFLVSKLTVDKSRWQQGNVFSCSVMHEALHNHYTQKSLSLSPDYKDDDDK
chain: EPKSSDKTHTCPPCPAPELLGGPSVFLFPPKPKDTLMISRTPEVTCVVVDVSHEDPEVKFNWYVDGVEVHNAKTKPREEQYNSTYRVVSVLTVLHQDWLNGKEYKCKVSNKALPAPIEKTISKAKGQPREPQVCTLPPSRDELTKNQVSLWCLVKGFYPSDIAVEWESNGQPENNYKTTPPVLDSDGSFFLYSKLTVDKSRWQQGNVFSCSVMHEALHNRYTQKSLSLSP
B2: GLS3000 Y96L one-arm antibody (antibody, human IgG1, kappa, L234A L235A, N297A, name in Kabat numbering)
light: B1 light with S99V, Y101L
heavy: B1 heavy
chain: B1 chain
B3: GLS3000 Y96H one-arm antibody (antibody, human IgG1, kappa, L234A L235A, N297A, name in Kabat numbering)
light: B1 light with S99V, Y101H
heavy: B1 heavy
chain: B1 chain
B4: GLS3000 Y96F one-arm antibody (antibody, human IgG1, kappa, L234A L235A, N297A, name in Kabat numbering)
light: B1 light with S99V, Y101F
heavy: B1 heavy
chain: B1 chain
B5: GLS3000 Y96D one-arm antibody (antibody, human IgG1, kappa, L234A L235A, N297A, name in Kabat numbering)
light: B1 light with S99V, Y101D
heavy: B1 heavy
chain: B1 chain
B6: GLS3000 Y32P one-arm antibody (antibody, human IgG1, kappa, L234A L235A, N297A, name in Kabat numbering)
light: B1 light with Y37P, S99V
heavy: B1 heavy
chain: B1 chain
B7: GLS3000 V94W one-arm antibody (antibody, human IgG1, kappa, L234A L235A, N297A, name in Kabat numbering)
light: B1 light with S99W
heavy: B1 heavy
chain: B1 chain
B8: GLS3000 Y96E one-arm antibody (antibody, human IgG1, kappa, L234A L235A, N297A, name in Kabat numbering)
light: B1 light with S99V, Y101E
heavy: B1 heavy
chain: B1 chain
B9: GLS3000 V94T one-arm antibody (antibody, human IgG1, kappa, L234A L235A, N297A, name in Kabat numbering)
light: B1 light with S99T
heavy: B1 heavy
chain: B1 chain
B10: GLS3000 Y32F one-arm antibody (antibody, human IgG1, kappa, L234A L235A, N297A, name in Kabat numbering)
light: B1 light with Y37F, S99V
heavy: B1 heavy
chain: B1 chain

Biological target: T1, CD3 epsilon homodimer protein (UniProt P07766 23-126)
T1 construct: Construct of the homodimer is not described; also called CD3 (CD3 epsilon)
T1 sequence (P07766 23-126): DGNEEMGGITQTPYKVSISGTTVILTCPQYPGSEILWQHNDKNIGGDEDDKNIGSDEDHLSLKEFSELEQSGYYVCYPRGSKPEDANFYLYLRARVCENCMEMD
Assay: SPR Biacore T200, CD3e homodimer on chip, antibody analyte;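 note: CD3 epsilon homodimer amine-coupled on CM4 sensor chip, antibodies injected as analyte at 25 °C in HBS-EP+, ratio ≥0.8 taken as binding retained versus unaltered parent antibody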

| ratio of amounts bound (altered form/GLS3000) | Binder |
| --- | --- |
| 0.93 | B1 |
| 0.32 | B2 |
| 0.23 | B3 |
| 1.17 | B4 |
| 0.17 | B5 |
| 0.24 | B6 |
| 0.58 | B7 |
| 0.17 | B8 |
| 0.93 | B9 |
| 0.29 | B10 |
